Article PMC7367873, “Dissecting the sequence determinants for dephosphorylation by the catalytic subunits of phosphatases PP1 and PP2A” (Nature Communications, 2020)

Target: T1, PP1c (Homo sapiens, UniProt P62136)
T1 construct: His tag with TEV site (N, cleaved yes); intein (pTXB1) (C, cleaved yes); made in house; host or cells: E. coli BL21Star(DE3)pRARE
Assay: Phosphoproteome dephosphorylation assay of HeLa Kyoto lysate with recombinant PP1c (TMT phosphoproteomics)
Assay type: biochemical
Settings: 1 µM recombinant phosphatase, 1 h at 30 °C, 20 nM Calyculin A, three replicates
Description: For phosphoproteomics, HeLa Kyoto cells were incubated with 20 nM Calyculin A (CST, #9902) for 10–15 min. This time point was determined empirically to yield maximal phosphatase inhibition without cells showing pleiotropic effects. Subsequently, cells were placed on ice and washed twice with cold PBS and scraped in lysis buffer (100 mM NaCl, 10 mM Tris, 0.1% IGEPAL, 1 mM EDTA, 1 mM EGTA, 20 nM Calyculin A, 1x cOmplete Mini protease inhibitor cocktail (Sigma), 1 mM DTT, 1 mM MnCl2, pH 7.5). After 10 pushes through an injection needle (21 G, BD), lysate was cleared from the insoluble fraction by centrifugation (10 min, 10^4 rcf, 4 °C). Protein concentration was then determined by a Bradford Assay and equal amounts of 1 mg total protein were incubated with recombinant PP1c/PP2Ac or buffer at a final phosphatase concentration of 1 µM in a total volume of 200 µL for 1 h at 30 °C. Lysates were then immediately placed on ice. PhosStop […] (Roche) was added and proteins were denatured by adding urea to a final concentration of 8 M taking into account the volume increase. Samples were then snap-frozen in liquid nitrogen for storage and subsequent MS analysis.
Treated lysates were reduced (10 mM DTT, 30 °C, 30 min) and alkylated (50 mM chloroacetamide, room temperature, 30 min, in the dark), and then diluted to 1.3 M urea using 40 mM Tris-HCl (pH 7.6). […]

T1 sequence (P62136 whole entry): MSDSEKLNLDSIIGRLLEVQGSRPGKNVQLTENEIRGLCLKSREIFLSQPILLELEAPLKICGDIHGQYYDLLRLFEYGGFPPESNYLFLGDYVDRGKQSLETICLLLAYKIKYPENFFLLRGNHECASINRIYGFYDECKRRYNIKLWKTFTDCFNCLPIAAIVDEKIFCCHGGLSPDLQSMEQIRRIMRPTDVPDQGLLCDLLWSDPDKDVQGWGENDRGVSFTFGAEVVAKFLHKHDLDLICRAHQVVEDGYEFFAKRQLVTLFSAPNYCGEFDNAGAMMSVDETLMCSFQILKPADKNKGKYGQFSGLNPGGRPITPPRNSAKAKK

- number of class I p-sites dephosphorylated by PP1: 1967 p-sites
Substance: PP1c: recombinant catalytic subunit of PP1
